B1: L1-25: library L1 hit with reverse repressor activity (SEQ ID NO: 1206-1213) (protein)
chain: MGSRLDKSKVINSALELLNEVGIEGLTTRKLAQKLGVEQPTLYWHVKNKRALLDALAIEMLDRHATHFCPLEGESWQDFLRNTAKSMRCALLSHRDGAKVLLGTATTEKQYETLENLLAFLYQQGFSLENALYAWQAVWRFTLGCVLIDQETQVAKEERETPTTDSMPPLLRQAVELKDHQGAEPAFLFGLELIICGLEKQLKCETGS
modifications: rSuR L1-25
B2: L6-1B03 (protein)
chain: MGSRLDKSKVINSALELLNEVGIEGLTTRKLAQKLGVEQPTLYWHVKNKRALLDALAIEMMDRHATHICPLEGESWQDFLRNNAKSMRCALLSHRDGAKVCLGTRWTEQQYEAAENMLAFLCQQGFSLENALYAVSAVRVFTLGCVLFDQESQVAKEERETPTTASMPPLLRQAWELKDHQGAEPAFLFGLELIICGLEKQLKCESGS
modifications: Sulfonylurea responsive repressor L6-1B03
B3: L6-5G06 (protein)
chain: MGSRLDKSKVINSALELLNEVGIEGLTTRKLAQKLGVEQPTLYWHVKNKRALLDALAIEMMDRHQTHYCPLEGESWQDFLRNNAKSMRCALLSHRDGAKVCLGTRWTEQQYETAENQLAFLCQQGFSLENALYAVSAVRVFTLGCVLFDQELQVAKEERETPTTASMPPLLRQGWELKDHQGAEPAFLFGLELIICGLEKQLKCESGS
modifications: Sulfonylurea responsive repressor L6-5G06
B4: L6-2C09 (protein)
chain: MGSRLDKSKVINSALELLNEVGIEGLTTRKLAQKLGVEQPTLYWHVKNKRALLDALAIEMMDRHQTHYCPLEGESWQDFLRNTAKSMRCALLSHRDGAKVCLGTRWTEQLYETAENQLAFLCQQGFSLENALYAMSAVRVFTLGCVLFDQELQVAKEERETPTTASMPPLLRQAWELKDHQGAEPAFLFGLELIICGLEKQLKCESGS
modifications: Sulfonylurea responsive repressor L6-2C09
B5: L6-5F05 (protein)
chain: MGSRLDKSKVINSALELLNEVGIEGLTTRKLAQKLGVEQPTLYWHVKNKRALLDALAIEMMDRHATHICPLEGESWQDFLRNNAKSMRCALLSHRDGAKVCLGTRWTEQQYEAAENQLAFLCQQGFSLENALYAVSAVRVFTLGCVLFDQELQVAKEERETPTTASMPPLLRQAWELKDHQGAEPAFLFGLELIICGLEKQLKCESGS
modifications: Sulfonylurea responsive repressor L6-5F05
B6: L6-2D07 (protein)
chain: MGSRLDKSKVINSALELLNEVGIEGLTTRKLAQKLGVEQPTLYWHVKNKRALLDALAIEMMDRHQTHFCPLEGESWQDFLRNTAKSMRCALLSHRDGAKVCLGTRWTEQQYETAENMLAFLCQQGFSLENALYAMSAVRVFTLGCVLFDQESQVAKEERETPTTASMPPLVRQAWELKDHQGAEPAFLFGLELIICGLEKQLKCESGS
modifications: Sulfonylurea responsive repressor L6-2D07
B7: L6-3H02: SuR polypeptide, SEQ ID NO: 94 (protein)
chain: MGSRLDKSKVINSALELLNEVGIEGLTTRKLAQKLGVEQPTLYWHVKNKRALLDALAIEMMDRHATHYCPLEGESWQDFLRNTAKSMRCALLSHRDGAKVCLGTRWTEQHYESAENMLAFLCQQGFSLENALYAVSAVRVFTLGCVLFDQESQVAKEERETPTTASMPPLVRQAWELKVHQGAEPAFLFGLELIICGLEKQLKCESGS
modifications: Sulfonylurea responsive repressor L6-3H02
B8: L6-4D10 (protein)
chain: MGSRLDKSKVINSALELLNEVGIEGLTTRKLAQKLGVEQPTLYWHVKNKRALLDALAIEMMDRHQTHYCPLEGESWQDFLRNNAKSMRCALLSHRDGAKVCLGTRWTEKQYESAENMLAFLCQQGFSLENALYAVSAVRVFTLGCVLFDQESQVAKEERETPTTASMPPLLRQAWELKDHQGAEPAFLFGLELIICGLEKQLKCESGS
modifications: Sulfonylurea responsive repressor L6-4D10
B9: L1-33: library L1 hit with reverse repressor activity (SEQ ID NO: 1206-1213) (protein)
chain: MGSRLDKSKVINSALELLNEVGIEGLTTRKLAQKLGVEQPTLYWHVKNKRALLDALAIEMLDRHATHFCPLEGESWQDFLRNNAKSMRCALLSHRDGAKVQLGTAATEKQYETLENKLAFLCQQGFSLENALYAHSAVTQFTLGCVLRDQEGQVAKEERETPTTDSMPPLLRQARELRDHQGAEPAFLFGLELIICGLEKQLKCESGS
modifications: rSuR L1-33
B10: L1-34: library L1 hit with reverse repressor activity (SEQ ID NO: 1206-1213) (protein)
chain: MGSRLDKSKVINSALELLNEVGIEGLTTRKLAQKLGVEQPTLYWHVKNKRALLDALAIEMADRHNTHFCPLEGESWQDFLRNAARSMRCALLSHRDGAKVYLGTARTEKQYETTENVLAFLCQQGFSLENALYAVRAVPRFTLGCVLLDQERQVAKEERETPTTDSMPPLLRQARELTDHQGAEPAFLFGLELIICGLEKQLKCESGS
modifications: rSuR L1-34

Tested on: lacZ under control of the tetA promoter (PtetA) in E. coli KM3
Format: cell-based
Details: for relative β-galactosidase activity, inducer atc / relative β-galactosidase activity, inducer Ci / relative β-galactosidase activity, inducer Cs / relative β-galactosidase activity, inducer Es / relative β-galactosidase activity, inducer Ms / relative β-galactosidase activity, inducer Ns / relative β-galactosidase activity, inducer Rs / relative β-galactosidase activity, inducer Sm / relative β-galactosidase activity, inducer Ts / relative β-galactosidase activity, inducer Tb: Table 6, reverse repressor hits; for relative β-galactosidase activity, inducer atc: anhydrotetracycline (0.4 μM); for relative β-galactosidase activity, inducer Ci: chlorimuron; for relative β-galactosidase activity, inducer Ci / relative β-galactosidase activity, inducer Cs / relative β-galactosidase activity, inducer Es / relative β-galactosidase activity, inducer Ms / relative β-galactosidase activity, inducer Ns / relative β-galactosidase activity, inducer Rs / relative β-galactosidase activity, inducer Sm / relative β-galactosidase activity, inducer Ts / relative β-galactosidase activity, inducer Tb: same plate assay format (20 ppm); for relative β-galactosidase activity, inducer Cs: chlorsulfuron; for relative β-galactosidase activity, inducer Es: ethametsulfuron; for relative β-galactosidase activity, inducer Ms: metsulfuron; for relative β-galactosidase activity, inducer Ns: nicosulfuron; for relative β-galactosidase activity, inducer Rs: rimsulfuron; for relative β-galactosidase activity, inducer Sm: sulfometuron; for relative β-galactosidase activity, inducer Ts: thifensulfuron; for relative β-galactosidase activity, inducer Tb: tribenuron; for 0.2 ppm 48 hr (colony color intensity, induction by chlorsulfuron): 0.2 ppm chlorsulfuron as inducer, 48 hr at 30° C.; for 0.2 ppm 48 hr (colony color intensity, induction by chlorsulfuron) / Control 84 hr (background activity, no inducer): M9 assay plates, ImageJ colony color intensity; for Control 84 hr (background activity, no inducer): 84 hr at 30° C.

Row | Molecule | relative β-galactosidase activity, inducer atc | relative β-galactosidase activity, inducer Ci | relative β-galactosidase activity, inducer Cs | relative β-galactosidase activity, inducer Es | relative β-galactosidase activity, inducer Ms | relative β-galactosidase activity, inducer Ns | relative β-galactosidase activity, inducer Rs | relative β-galactosidase activity, inducer Sm | relative β-galactosidase activity, inducer Ts | relative β-galactosidase activity, inducer Tb | 0.2 ppm 48 hr/Control 84 hr | 0.2 ppm 48 hr (colony color intensity, induction by chlorsulfuron) | Control 84 hr (background activity, no inducer)
1 | B1 | 1.22 | 0.11 | 0.28 | 0.13 | 0.32 | 1.21 | 1.08 | 0.63 | 0.64 | 1.72 | – | – | –
2 | B2 | – | – | – | – | – | – | – | – | – | – | 4.6 | 30.0 | 6.6
3 | B3 | – | – | – | – | – | – | – | – | – | – | 4.9 | 34.4 | 7.0
4 | B4 | – | – | – | – | – | – | – | – | – | – | 2.6 | 13.6 | 5.2
5 | B5 | – | – | – | – | – | – | – | – | – | – | 4.1 | 22.0 | 5.4
6 | B6 | – | – | – | – | – | – | – | – | – | – | 3.4 | 20.0 | 5.8
7 | B7 | – | – | – | – | – | – | – | – | – | – | 2.8 | 15.8 | 5.6
8 | B8 | – | – | – | – | – | – | – | – | – | – | 3.7 | 18.4 | 5.0
9 | B9 | 8.25 | 0.76 | 3.74 | 2.11 | 4.29 | 5.34 | 10.32 | 5.02 | 5.51 | 4.71 | – | – | –
10 | B10 | 3.68 | 0.43 | 0.85 | 1.33 | 1.47 | 2.91 | 2.30 | 2.00 | 2.97 | 2.26 | – | – | –

From patent US9206432B2, “Sulfonylurea-responsive repressor proteins” (priority 2008, dated 2015)
